Measurements taken from patent publication US20070089183A1, “Size and/or growth engineering by modulation of the interaction between calmodulin, and brassinosteroid biosynthetic enzymes and orthologs therof” (Washington State University, priority 2005, published 2007).
Positions count from the first letter of the chain named. Names may count otherwise.

B1: DWF1: wild-type Arabidopsis DWARF1 (At3g19820), expressed from 35S::DWF1 in cW plants (protein, listed as Arabidopsis thaliana)
chain: MSDLQTPLVRPKRKKTWVDYFVKFRWIIVIFIVLPFSATFYFLIYLGDMWSESKSFEKRQKEHDENVKKVIKRLKGRDASKDGLVCTARKPWIAVGMRNVDYKRARHFEVDLGEFRNILEINKEKMTARVEPLVNMGQISRATVPMNLSLAVVAELDDLTVGGLINGYGIEGSSHIYGLFADTVEAYEIVLAGGELVRATRDNEYSDLYYAIPWSQGTLGLLVAAEIRLIKVKEYMRLTYIPVKGDLQALAQGYIDSFAPKDGDKSKIPDFVEGMVYNPTEGVMMVGTYASKEEAKKKGNKINNVGWWFKPWFYQHAQTALKKGQFVEYIPTREYYHRHTRCLYWEGKLILPFGDQFWFRYLLGWLMPPKVSLLKATQGEAIRNYYHDMHVIQDMLVPLYKVGDALEWVHREMEVYPIWLCPHKLFKQPIKGQIYPEPGFEYENRQGDTEDAQMYTDVGVYYAPGCVLRGEEFDGSEAVRRMEKWLIENHGFQPQYAVSELDEKSFWRMFNGELYEECRKKYRAIGTFMSVYYKSKKGRKTEKEVREAEQAHLETAYAEAD
B2: V531D: Arabidopsis thaliana DWF1 protein V531D mutant, disturbing the hydrophobic surface of the CaMBD (protein, listed as Arabidopsis thaliana)
chain: B1 chain with V531D
B3: KYR52-5231DGD: Arabidopsis thaliana DWF1 protein K521D, Y522G, R523D triple mutant (protein, listed as Arabidopsis thaliana)
chain: B1 chain with K521D, Y522G, R523D
B4: DWF4: Arabidopsis brassinosteroid biosynthetic enzyme DWF4 (AT3G50660) (protein, listed as Arabidopsis thaliana)
chain: MFETEHHTLLPLLLLPSLLSLLLFLILLKRRNRKTRFNLPPGKSGWPFLGETIGYLKPYTATTLGDFMQQHVSKYGKIYRSNLFGEPTIVSADAGLNRFILQNEGRLFECSYPRSIGGILGKWSMLVLVGDMHRDMRSISLNFLSHARLRTILLKDVERHTLFVLDSWQQNSIFSAQDEAKKFTFNLMAKHIMSMDPGEEETEQLKKEYVTFMKGVVSAPLNLPGTAYHKALQSRATILKFIERKMEERKLDIKEEDQEEEEVKTEDEAEMSKSDHVRKQRTDDDLLGWVLKHSNLSTEQILDLILSLLFAGHETSSVAIALAIFFLQACPKAVEELREEHLEIARAKKELGESELNWDDYKKMDFTQCVINETLRLGNVVRFLHRKALKDVRYKGYDIPSGWKVLPVISAVHLDNSRYDQPNLFNPWRWQQQNNGASSSGSGSFSTWGNNYMPFGGGPRLCAGSELAKLEMAVFIHHLVLKFNWELAEDDQPFAFPFVDFPNGLPIRVSRIL
B5: Δ518-539: Arabidopsis thaliana DWF1 protein Δ518-539 mutant, a total deletion of the CaMBD (protein, listed as Arabidopsis thaliana)
chain: MSDLQTPLVRPKRKKTWVDYFVKFRWIIVIFIVLPFSATFYFLIYLGDMWSESKSFEKRQKEHDENVKKVIKRLKGRDASKDGLVCTARKPWIAVGMRNVDYKRARHFEVDLGEFRNILEINKEKMTARVEPLVNMGQISRATVPMNLSLAVVAELDDLTVGGLINGYGIEGSSHIYGLFADTVEAYEIVLAGGELVRATRDNEYSDLYYAIPWSQGTLGLLVAAEIRLIKVKEYMRLTYIPVKGDLQALAQGYIDSFAPKDGDKSKIPDFVEGMVYNPTEGVMMVGTYASKEEAKKKGNKINNVGWWFKPWFYQHAQTALKKGQFVEYIPTREYYHRHTRCLYWEGKLILPFGDQFWFRYLLGWLMPPKVSLLKATQGEAIRNYYHDMHVIQDMLVPLYKVGDALEWVHREMEVYPIWLCPHKLFKQPIKGQIYPEPGFEYENRQGDTEDAQMYTDVGVYYAPGCVLRGEEFDGSEAVRRMEKWLIENHGFQPQYAVSELDEKSFWRMFNGELYEEKTEKEVREAEQAHLETAYAEAD
B6: DWF5: Arabidopsis DWF5 (AT1G50430), sterol Δ7 reductase (protein, listed as Arabidopsis thaliana)
chain: MAETVHSPIVTYASMLSLLAFCPPFVILLWYTMVHQDGSVTQTFGFFWENGVQGLINIWPRPTLIAWKIIFCYGAFEAILQLLLPGKRVEGPISPAGNRPVYKANGLAAYFVTLATYLGLWWFGIFNPAIVYDHLGEIFSALIFGSFIFCVLLYIKGHVAPSSSDSGSCGNLIIDFYWGMELYPRIGKSFDIKVFTNCRFGMMSWAVLAVTYCIKQYEINGKVSDSMLVNTILMLVYVTKFFWWEAGYWNTMDIAHDRAGFYICWGCLVWVPSVYTSPGMYLVNHPVELGTQLAIYILVAGILCIYINYDCDRQRQEFRRTNGKCLVWGRAPSKIVASYTTTSGETKTSLLLTSGWWGLARHFHYVPEILSAFFWTVPALFDNFLAYFYVIFLTLLLFDRAKRDDDRCRSKYGKYWKLYCEKVKYRIIPGIY

Assays:
[1] = test system: DWF1 function (sitosterol/isofucosterol levels); assay: GC-MS sterol analysis of complemented plants; assay type: in vivo, Arabidopsis; conditions: endogenous sitosterol/isofucosterol by GC-MS, six- to seven-week-old plants
Method: DWF1 catalyses the conversion of isofucosterol to sitosterol and 24-methylenecholesterol to campesterol^6,7. The endogenous levels of sitosterol/isofiicosterol or campesterol/24-methylenecholesterol in wild-type, dwarf and complemented plants were analysed using gas chromatography-mass spectrometry (GC-MS) to monitor the function of the complementing DWF1, DWF1(V531D), DWF1(KYR521-523DGD) and DWF1(Δ518-539) carried in cW, cM1, cM2 and cM3 plants, respectively.
Sterol analysis. Six- to seven-week-old greenhouse-grown plants were harvested and ground into a fine powder in liquid nitrogen. Aliquots of 100 mg ground material were sponified in 1 N NaOH, 70% ethanol at 70° C. for 2 h. The sterols were extracted three times with 500 μl hexane, and the combined extracts were dried and dissolved in 100 μl of methylene chloride. GC-MS analyses were conducted on an Agilent 6890 GC system with 5973N mass selective detector. A 1 μl aliquot of methylene chloride extract containing the underivatized sterols was loaded by cool on column injection on a Zebron (Phenomenex) ZB-5 column, 30 m×0.25 mm internal diameter with 0.25 μm film thickness. Chromatography was accomplished using He as the carrier gas at a flow rate of 0.7 ml min^−1. The column oven temperature was programmed to run from 40° C. to 300° C. increased at 20° C. min^−1, with a hold for 10 min at 300° C. Identification and quantification of sterols was accomplished by comparison to authentic standards based on the retention time, peak area and mass fragmentation pattern.

dwf1 null mutant = assay: complementation of dwf1 null mutant, plant phenotype; assay type: in vivo, Arabidopsis; conditions: for phenotype rescue of dwf1 mutant: 35S promoter-driven construct in homozygous dwf1 knockout
From the text: To circumvent the infertility problem associated with homozygous dwf1 mutants^6,7, a heterozygous dwf1 line (SALK—006932, ref. 23) was chosen for transformation. A T-DNA insert is shown in FIG. 6, panel A, and detailed characterizations confirmed that it is a heterozygous dwf1 null mutation line (FIG. 2a, b).
Specifically, heterozygous SALK—006932 plants were transformed with a 35S::DWF1 construct (FIG. 6, panel B). […] Using polymerase chain reaction (PCR) analysis, one dwarf and seven normal plants were identified that carried at least one copy of the 35S::DWF1 complementary construct and were homozygous knockout at the endogenous DWF1 loci. The dwarfism in the dwarf plant was confirmed to be caused by a failure in expression of the transgene (FIG. 2c, d). The overexpressed (numbers 1, 2, 3, 8) and equally expressed (numbers 5, 7) lines grew like the wild-type, confirming a previous report^6. […] At the adult stage, 7 out of the 8 complemented lines reached similar levels of height and fertility as that of wild-type plants (FIG. 3c).
Mutants. Three mutants were produced to disrupt the conserved secondary structure of the CaMBD of DWF1 (FIG. 6, Panel B): V531D (M1), aimed at disturbing the hydrophobic surface; KYR521-523DGD (M2, K521, Y522 and R523 are changed to D521, G522 and D523), aimed at changing the net surface charges; and Δ518-539 (M3), a total deletion of the CaMBD. […] A similar strategy was used to deliver the mutant dwf1 complimentary constructs (FIG. 6, Panel B) into the heterozygous dwf1 plants. Visual checks identified 18, 11 and 19 dwarf plants in the T1 population carrying 35S::DWF1(V531D), 35S::DWF1(KYR521-523DGD) and 35S::DWF1(Δ518-539) complimentary constructs, respectively. These plants were confirmed to carry at least one copy of the transgene and the homozygous knockout at the endogenous DWF1 loci.
To ensure a reliable comparison of the complementary effects of normal DWF1 and the three mutants, T2 plants with similar expression levels were compared (FIG. 3b-d). […] Seeds were produced in most of the slightly shorter siliques of cM1 plants (FIG. 3b, c). […] The dwarf phenotypes of cM1, cM2, cM3 and the dwf1 mutant were rescued by exogenous application of brassinolide (data not shown).

35S-CaM = assay: 35S-CaM-binding assay; conditions: purified recombinant protein covering amino acid 517 to the stop codon, 2 μg per lane
Method: Total proteins from E. coli expressing pScreen-1b (lane 1) or expressing pScreen-1b-517-561 (lane 2) were stained (left panel) or bound to ^35S-CaM in the presence of Ca^2+ (middle panel) or EGTA (right panel), a Ca^2+ chelator. […] Total proteins from plants expressing the Flag-tagged DWF1 (DWF1-Flag) or wild-type plants (WT) were incubated with antibodies against full-length human CaM1 (anti-CaM1), AtBET10 (anti-AtBET10) or non-immune serum (Non-im.); immunocomplexes were separated on SDS-PAGE and detected with anti-Flag M2 monoclonal antibody. […] Total proteins from E. coli expressing pET32b (lane 1), pET32b-1-349 (lane 2), pET32b-348-518 (lane 3), pScreen-1b (lane 4) or pScreen-1b-517-561 (lane 5) were stained (left) or were bound to ^35S-CaM (right). […] CaM and the peptide-CaM complex is indicated.
To confirm further the CaM-binding ability of DWF1, the positive clone from the library screening was expressed in Escherichia coli and tested for ^35S-CaM binding^15 in the presence of Ca^2+, EGTA, a Ca^2+ chelator, or Mg^2+. […] C-terminal Flag-tagged DWF1 overexpression lines of Arabidopsis were produced to study the DWF1-CAM interaction in vivo. Because of the dynamic nature of the interaction between DWF1 and Ca^2+/CaM, co-immunoprecipitation using a prior in vivo crosslinking strategy^16 was adapted to verify their interaction under physiological conditions.
The CaMBD is typically comprised of a stretch of 12-30 contiguous amino acids that contain a positive net charge and have a propensity to form an amphiphilic α-helix^4. […] A peptide corresponding to 518-539 was synthesized, and its CaM-binding ability was confirmed using PCM6 (ref. 17) in a gel mobility shift assay^15 (FIG. 1e).
Mutants. Three mutants were produced to disrupt the conserved secondary structure of the CaMBD of DWF1 (FIG. 6, Panel B): V531D (M1), aimed at disturbing the hydrophobic surface; KYR521-523DGD (M2, K521, Y522 and R523 are changed to D521, G522 and D523), aimed at changing the net surface charges; and Δ518-539 (M3), a total deletion of the CaMBD. […]

Ca^2+/CaM = assay: gel mobility shift assay of BR biosynthetic proteins; assay type: binding, potato; conditions: FIG. 5
From the text: PCM1: potato calmodulin 1; PCM6: potato calmodulin 6. Sequences of respective CaMBD are also shown: N-DWF4 (SEQ ID NO:18); C-DWF4 (SEQ ID NO:19); CPD (SEQ ID NO:17); and DWF5 (SEQ ID NO:20).
DWF1Ca^2+ is an important second messenger and an integral part of the cellular signalling system in plants^5,29. Applicants were thus prompted to survey the CaM-binding properties of other proteins involved in brassinosteroid biosynthesis.

Row | Molecule | recovery of DWF1 function [1] | phenotype rescue of dwf1 mutant (dwf1 null mutant) | CaM-binding ability (35S-CaM) | height of flowering stems relative to the wild-type plant (dwf1 null mutant; T2 plants with similar expression levels) | Ca^2+/CaM binding (Ca^2+/CaM)
1 | B1 | recovered to a level comparable to that in wild-type plants | completely rescue | – | – | –
2 | B2 | restored to some extent | some degree of phenotype rescue | markedly decreased | up to 40% | –
3 | B3 | almost non-existent | very slight phenotypic rescue | undetectable | – | –
4 | B4 | – | – | – | – | Ca^2+/CaM-binding proteins
5 | B5 | almost non-existent | grew like the uncomplemented dwf1 mutants | undetectable | – | –
6 | B6 | – | – | – | – | Ca^2+/CaM-binding proteins
